The source of these data is doi:10.1101/2024.02.22.581614 (bioRxiv, 2024).

The target of the assay is T1, Extant nitrogenase molybdenum-iron protein alpha chain, NifD (A. vinelandii) (Azotobacter vinelandii, UniProt P07328 1-492).
T1 sequence (looked up): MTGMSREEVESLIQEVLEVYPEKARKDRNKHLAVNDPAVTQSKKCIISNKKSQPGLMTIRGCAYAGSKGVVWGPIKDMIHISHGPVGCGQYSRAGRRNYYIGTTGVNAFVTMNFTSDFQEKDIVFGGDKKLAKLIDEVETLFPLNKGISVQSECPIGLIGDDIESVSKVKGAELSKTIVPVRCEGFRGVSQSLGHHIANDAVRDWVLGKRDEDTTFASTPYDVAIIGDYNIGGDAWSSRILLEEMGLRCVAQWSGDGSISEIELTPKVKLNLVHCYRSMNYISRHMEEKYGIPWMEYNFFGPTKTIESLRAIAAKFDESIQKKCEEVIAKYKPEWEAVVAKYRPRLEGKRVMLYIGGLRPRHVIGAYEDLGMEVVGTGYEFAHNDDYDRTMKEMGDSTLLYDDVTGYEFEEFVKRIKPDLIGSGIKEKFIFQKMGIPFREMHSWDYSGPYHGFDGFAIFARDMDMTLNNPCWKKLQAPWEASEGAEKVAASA
Put plainly: affinity co-purification.

B1: Extant nitrogenase molybdenum-iron protein beta chain, NifK (A. vinelandii) (enzyme, Azotobacter vinelandii, UniProt P07329 1-523, looked up)
chain: MSQQVDKIKASYPLFLDQDYKDMLAKKRDGFEEKYPQDKIDEVFQWTTTKEYQELNFQREALTVNPAKACQPLGAVLCALGFEKTMPYVHGSQGCVAYFRSYFNRHFREPVSCVSDSMTEDAAVFGGQQNMKDGLQNCKATYKPDMIAVSTTCMAEVIGDDLNAFINNSKKEGFIPDEFPVPFAHTPSFVGSHVTGWDNMFEGIARYFTLKSMDDKVVGSNKKINIVPGFETYLGNFRVIKRMLSEMGVGYSLLSDPEEVLDTPADGQFRMYAGGTTQEEMKDAPNALNTVLLQPWHLEKTKKFVEGTWKHEVPKLNIPMGLDWTDEFLMKVSEISGQPIPASLTKERGRLVDMMTDSHTWLHGKRFALWGDPDFVMGLVKFLLELGCEPVHILCHNGNKRWKKAVDAILAASPYGKNATVYIGKDLWHLRSLVFTDKPDFMIGNSYGKFIQRDTLHKGKEFEVPLIRIGFPIFDRHHLHRSTTLGYEGAMQILTTLVNSILERLDEETRGMQATDYNHDLVR
B1: the “stoichiometry N” value was 0.93 D:K.
